In publication PMC4307304, “The Oxidative Fermentation of Ethanol in Gluconacetobacter diazotrophicus Is a Two-Step Pathway Catalyzed by a Single Enzyme: Alcohol-Aldehyde Dehydrogenase (ADHa)” (International Journal of Molecular Sciences, 2015):

Legend:
purified protein = substrate: CCO; test: purified protein; details: quinone analogue Q1 or Q2 100 uM, pH 6.0 phosphate, 30 °C, Triton X-100
[1] = substrate: CC=O; test: oxygen consumption (Clark electrode), oxidase activity of purified ADHa coupled to ADH-deficient Ga. diazotrophicus membranes; type: biochemical, Gluconacetobacter diazotrophicus; details: quinone analogue Q1 or Q2 100 uM, pH 6.0 phosphate, 30 °C, Triton X-100, text b13 calls the acetaldehyde constants of both assays the same, although the table prints 3.7 × 10^−4 for the dehydrogenase
Description: oxygen consumption (Clark electrode), oxidase activity of purified ADHa coupled to ADH-deficient Ga. diazotrophicus membranes on ADHa

B1: ADHa (Gluconacetobacter diazotrophicus PA1 5) (protein)
chain: ESEFGATGEAIIHADDHPGDWLTYGRTYSEQRYSPLDQINRSNVGNLKLAWYYDLDTNRGQEGTPLIVDGVMYATTNWSKMKALDAATGKLLWAYDPRVPGNIADKGCCDTVNRGAAYWNGKVYFGTFDGRLIALDAKTGKLVWSVNTIPADAALGHQRSYTVDGAPRIAKGRVIIGNGGSEFGARGFVSAFDAETGKLDWRFYTVPNAQNKPDNAPSDAVLMSKAYPTWSPTGAWTTQGGGGTVWDSIVYDPVTDLVYLGVGNGSPWNYKFRSDGKGDNLFLGSIVALKPETGEYVWHFQETPMDQWDYTSVQQIMTLDLPINGQTRHVIVHAPKNGFFYIIDAKTGEFLSGKNYVYVNWASGLDPKTGRPIYNPDALYTLNGKEWYGIPGDLGGHNFAAMAFSPRTGLVYIPAQQVPFLYTSQVGGFKPHPDSWNLGLDMNKVGVTDSPEAKQAFIKDLKGWIVAWDPVKQQEAFRVDHKGPWNGGIVATGGDLLFQGLANGEFHAYDATNGADLFHFAAQSGIIAPPVTYMANGKQYVAVEVGWGGIYPFFLGGLARTSGWTVNHSRVIAFSLDGAAKLPPQNDKGFLPVKPPAQFDGKRTDNGYFEFQTFCAACHGDNAEAGGVLPDLRWSGAIRHQDAFYNVVGRGALTAYGMDRFDASMKPEQIEDIRQFLIKRSNDTYQREVDARKNVDGIPAQ
notes: native, purified from membranes with Triton X-100; heterodimer ~72 kDa (S-I) and ~44 kDa (S-II); with Alcohol dehydrogenase (quinone), cytochrome c subunit
Km (purified protein): 76 µM
kcat/Km (purified protein): 1.8e+09 M⁻¹ s⁻¹
Km [1]: 1.1 mM
kcat/Km [1]: 1e+08 M⁻¹ s⁻¹
